{"source": "patent US20040081647"}
{"target": "recombinant human TNFα (RDI) (UniProt P01375)", "sequence (P01375 77-233)": "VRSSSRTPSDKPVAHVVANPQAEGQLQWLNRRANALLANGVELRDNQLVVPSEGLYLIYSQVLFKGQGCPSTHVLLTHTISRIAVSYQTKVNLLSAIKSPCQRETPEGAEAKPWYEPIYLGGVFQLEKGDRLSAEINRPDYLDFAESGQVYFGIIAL"}
{"substance": "MMP12", "log reduction in TNFα activity (L929 cytotoxicity bioassay after overnight digestion)": "MMP12 (0.65)"}
{"substance": "Tryptase", "log reduction in TNFα activity (L929 cytotoxicity bioassay after overnight digestion)": "Tryptase (0.62)"}
{"substance": "Enterokinase", "inactivation of TNFα (L929 cytotoxicity bioassay after overnight digestion)": "Enterokinase (under: Proteases that did not inactivate TNF)"}
{"substance": "Furin", "inactivation of TNFα (L929 cytotoxicity bioassay after overnight digestion)": "Furin (under: Proteases that did not inactivate TNF)"}
{"substance": "Urokinase", "inactivation of TNFα (L929 cytotoxicity bioassay after overnight digestion)": "Urokinase (under: Proteases that did not inactivate TNF)"}
{"substance": "CHYMOTRYPSIN", "log reduction in TNFα activity (L929 cytotoxicity bioassay after overnight digestion)": "CHYMOTRYPSIN (2.74)"}
{"substance": "Plasmin", "inactivation of TNFα (L929 cytotoxicity bioassay after overnight digestion)": "Plasmin (under: Proteases that did not inactivate TNF)"}
{"substance": "ELASTASE", "log reduction in TNFα activity (L929 cytotoxicity bioassay after overnight digestion)": "ELASTASE (1.45)"}
{"substance": "Kallikrein5", "inactivation of TNFα (L929 cytotoxicity bioassay after overnight digestion)": "Kallikrein5 (under: Proteases that did not inactivate TNF)"}
{"substance": "MT5-MMP", "inactivation of TNFα (L929 cytotoxicity bioassay after overnight digestion)": "MT5-MMP (under: Proteases that did not inactivate TNF)"}
{"substance": "ADAM10", "inactivation of TNFα (L929 cytotoxicity bioassay after overnight digestion)": "ADAM10 (under: Proteases that did not inactivate TNF)"}
{"substance": "TACE", "inactivation of TNFα (L929 cytotoxicity bioassay after overnight digestion)": "TACE (under: Proteases that did not inactivate TNF)"}
{"substance": "HIV Protease", "inactivation of TNFα (L929 cytotoxicity bioassay after overnight digestion)": "HIV Protease (under: Proteases that did not inactivate TNF)"}
{"substance": "MT1-MMP", "log reduction in TNFα activity (L929 cytotoxicity bioassay after overnight digestion)": "MT1-MMP (0.86)"}
{"substance": "TRYPSIN", "log reduction in TNFα activity (L929 cytotoxicity bioassay after overnight digestion)": "TRYPSIN (2.3)"}
{"substance": "MMP3", "inactivation of TNFα (L929 cytotoxicity bioassay after overnight digestion)": "MMP3 (under: Proteases that did not inactivate TNF)"}
